Measured values taken from US6825167.

Assays:
αvβ3 integrin (human) [1] = target: αvβ3 integrin (human) (UniProt P06756); experiment: cell-based or functional assay
αvβ3 integrin (human) [2] = target: αvβ3 integrin (human) (UniProt P06756); experiment: attachment of αvβ3-expressing WM35 cells to wells coated at 1 nmole/well, Cell Counting Kit-8

Chain of UniProt P06756 (P06756 31-1048, chain 1 of 2): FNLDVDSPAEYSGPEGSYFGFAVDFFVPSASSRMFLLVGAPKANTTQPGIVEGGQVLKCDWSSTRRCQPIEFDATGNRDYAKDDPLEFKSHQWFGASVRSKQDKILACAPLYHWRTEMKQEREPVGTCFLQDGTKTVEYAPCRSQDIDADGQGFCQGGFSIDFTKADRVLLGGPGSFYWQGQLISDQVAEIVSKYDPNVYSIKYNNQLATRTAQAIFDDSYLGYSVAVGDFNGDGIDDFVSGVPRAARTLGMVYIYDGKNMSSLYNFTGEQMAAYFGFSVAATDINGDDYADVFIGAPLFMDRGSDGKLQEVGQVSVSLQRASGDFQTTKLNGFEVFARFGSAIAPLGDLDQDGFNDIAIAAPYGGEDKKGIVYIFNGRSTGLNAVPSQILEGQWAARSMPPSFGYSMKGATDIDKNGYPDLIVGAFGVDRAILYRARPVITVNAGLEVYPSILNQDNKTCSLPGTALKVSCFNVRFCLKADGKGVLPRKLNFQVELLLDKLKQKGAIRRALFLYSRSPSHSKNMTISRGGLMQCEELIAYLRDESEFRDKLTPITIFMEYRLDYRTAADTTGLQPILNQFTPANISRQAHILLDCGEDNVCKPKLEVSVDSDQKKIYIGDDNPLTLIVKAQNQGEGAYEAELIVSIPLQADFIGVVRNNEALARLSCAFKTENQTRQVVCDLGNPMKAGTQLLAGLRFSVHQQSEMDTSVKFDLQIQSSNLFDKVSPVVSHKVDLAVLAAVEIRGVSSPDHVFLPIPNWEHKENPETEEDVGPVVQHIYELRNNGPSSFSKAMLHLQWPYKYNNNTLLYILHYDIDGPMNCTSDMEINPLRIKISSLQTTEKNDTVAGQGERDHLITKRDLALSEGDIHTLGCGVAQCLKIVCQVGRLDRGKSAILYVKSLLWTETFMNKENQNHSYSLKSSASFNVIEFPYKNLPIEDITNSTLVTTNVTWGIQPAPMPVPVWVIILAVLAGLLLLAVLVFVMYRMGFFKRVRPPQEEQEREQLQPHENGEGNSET
Chain of UniProt P06756 (P05106 27-788, chain 2 of 2, further chain): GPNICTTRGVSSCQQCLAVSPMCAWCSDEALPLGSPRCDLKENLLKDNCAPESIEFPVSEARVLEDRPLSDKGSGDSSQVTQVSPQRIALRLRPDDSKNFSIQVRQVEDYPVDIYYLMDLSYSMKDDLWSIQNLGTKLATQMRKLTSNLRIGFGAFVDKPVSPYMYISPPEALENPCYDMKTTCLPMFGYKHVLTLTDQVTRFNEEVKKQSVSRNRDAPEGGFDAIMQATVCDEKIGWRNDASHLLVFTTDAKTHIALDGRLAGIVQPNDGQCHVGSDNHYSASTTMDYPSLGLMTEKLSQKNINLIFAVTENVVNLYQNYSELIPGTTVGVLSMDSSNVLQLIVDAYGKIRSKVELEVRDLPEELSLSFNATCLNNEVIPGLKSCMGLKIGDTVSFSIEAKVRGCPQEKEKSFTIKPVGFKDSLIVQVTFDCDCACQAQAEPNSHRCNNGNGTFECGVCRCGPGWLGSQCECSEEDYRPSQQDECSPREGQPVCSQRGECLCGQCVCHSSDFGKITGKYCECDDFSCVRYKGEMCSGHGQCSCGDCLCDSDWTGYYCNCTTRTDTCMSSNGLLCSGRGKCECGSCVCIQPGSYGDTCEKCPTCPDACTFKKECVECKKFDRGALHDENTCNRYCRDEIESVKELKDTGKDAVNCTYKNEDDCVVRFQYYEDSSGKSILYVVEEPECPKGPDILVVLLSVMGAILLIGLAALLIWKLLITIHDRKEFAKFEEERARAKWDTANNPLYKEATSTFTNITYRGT

| HUVEC attachment to coated wells (100% = gelatin-coated wells) (αvβ3 integrin (human) [1]) [%] | increase of HUVEC attachment over native endostatin (αvβ3 integrin (human) [1]) [%] | percent of cells attached (100% = gelatin-coated wells) (αvβ3 integrin (human) [2]) [%] | direct binding of [125I]-RGD-endostatin to HUVEC (pmole per 10^6 cells) (αvβ3 integrin (human) [1]) [pmol] | Substance |
| --- | --- | --- | --- | --- |
| 80 | 40 | – | – | human endostatin-RGD (from UniProt P39060 1572-1754) |
| – | – | 18 | – | human endostatin (from UniProt P39060 1572-1754) |
| 80 | 40 | 60 | 1.2 | RGD-human endostatin (from UniProt P39060 1572-1754) |
